Reference: article PMC7954794, “Protein context shapes the specificity of SH3 domain-mediated interactions in vivo” (Nature Communications, 2021)

Experiments:
Assay type in all cases: cell-based, Saccharomyces cerevisiae
[1] = tested on: BUD14; assay: DHFR-PCA on solid medium, bait BUD14 (Fig. 1B); details: bait BUD14, label = prey; for medrep (log2 median colony size normalized to plate background, PCA score): 4 replicates
Text: (§1) Supplement 41467_2021_21873_MOESM8_ESM.xlsx, sheet "Fig1B" | column: medsize; medrep; Ratio; Score

[2] = tested on: BOI1; assay: DHFR-PCA on solid medium, bait BOI1 (Fig. 1B); details: bait BOI1, label = prey
Text: as §1

[3] = tested on: BEM1-1; assay: DHFR-PCA on solid medium, bait BEM1-1 (Fig. 1B); details: bait BEM1-1, label = prey; for medrep (log2 median colony size normalized to plate background, PCA score): 2-8 replicates
Text: as §1

[4] = tested on: BOI2; assay: DHFR-PCA on solid medium, bait BOI2 (Fig. 1B); details: bait BOI2, label = prey; 3-8 replicates
Text: as §1

[5] = tested on: BBC1; assay: DHFR-PCA on solid medium, bait BBC1 (Fig. 1B); details: bait BBC1, label = prey
Text: as §1

[6] = tested on: BEM1-2; assay: DHFR-PCA on solid medium, bait BEM1-2 (Fig. 1B); details: bait BEM1-2, label = prey; for medrep (log2 median colony size normalized to plate background, PCA score): 2-8 replicates; for Ratio (SH3-deleted/WT medrep): only significant differences showed, PPIs completely lost have a ratio of 0.1 and the gained PPIs 2.5
Text: as §1

[7] = tested on: ABP1; assay: DHFR-PCA on solid medium, bait ABP1 (Fig. 1B); details: bait ABP1, label = prey; for medrep (log2 median colony size normalized to plate background, PCA score): 2-4 replicates
Text: as §1

[8] = tested on: 575 putative partners (preys) of 22 WT SH3-containing proteins; assay: DHFR-PCA on solid medium, WT and SH3-deleted baits (Fig. 1B); design: key to Score: 0: SH3-independent; 1: SH3-dependent PPIs; 2: SH3-inhibited PPIs; details: for medrep (log2 median colony size normalized to plate background, PCA score): label = prey
Outline: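 Interactions scored by DHFR protein-fragment complementation on solid medium using robotic pinning; preys (DHFR F[3] fusions) arrayed in duplicate with control borders. Baits carried C-terminal DHFR F[1,2]-FLAG tags, tested as wild type and as SH3-deleted versions carrying a flexible Gly/Ser stuffer.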

[9] = only significant differences showed, PPIs completely lost have a ratio of 0.1 and the gained PPIs 2.5

B1: YGR238C (protein, UniProt P50090 1-882, looked up)
Kelch repeat-containing …: MVPFKLTNKVPTDTGPSLISAQSVPRPIVFMDNRNNTRIVTPTLPPNQHRGISGASTALPWSPESKNTGKYIWNRVKLKNSPFPRYRHSSSFIVTNDNRIFVTGGLHDQSVYGDVWQIAANADGTSFTSKRIDIDQNTPPPRVGHASTICGNAYVVFGGDTHKLNKNGLLDDDLYLFNINSYKWTIPQPIGRRPLGRYGHKISIIASNPMQTKLYLFGGQVDETYFNDLVVFDLSSFRRPNSHWEFLEPVGDLPPPLTNHTMVAYDNKLWVFGGETPKTISNDTYRYDPAQSEWSKVKTTGEKPPPIQEHASVVYKHLMCVLGGKDTHNAYSNDVYFLNLLSLKWYKLPRMKEGIPQERSGHSLTLMKNEKLLIMGGDKTDYASPNIHDLQTSETDQGEGTLLYTLDLSSLNELCPGIMCESLHAGESFSNSLSGGFTPSKSTESENQEIINILTPRLPDSKVLSYNDIDEGAGSYSSALDDKAFERKSDREEKKPQSSKVDSSINKESPGTGIKVSKKNFPVLRGLTVDSEEYGSSSYKDTSCQKGIPKNLFDDLNLNLQTLRLEAQQKELETARHISQLEKEVQRLMVIKEASKDSNFQTARLKNLEIQKTFLESRINDLKNLLMVKLSQASKLCDQITIQNNGLKTCSEHVTIKRDIIDLENKCDVLKRQNEILVNNMQKITPELHTYLNESSCYLGKLLKSYPTSARPPSSEKDNQIYEKDSLNKIEKVINEMHETVRAKEKLHLETQKLNDERDSLRANLLDNNNKLDALRKLSDGSSKSMDLTKKAIHLSQSELEKYRKNNDDLQKEIDRIKTEQAEQDDKQEQRGAITHGNFDAFHRMKINNLKAELYMSKENRDSLKDELLALKKKLYTLEQKK
In the case of B1, the “medrep (log2 median colony size normalized to plate background, PCA score)” value [1] is reported as 3.527.

B2: YER149C (protein, UniProt P40091 1-420, looked up)
Protein PEA2: MHKFDLELSRRANPLLFSAERYEEYPLKYDELKQYLLSQNPSHPHHNSRPYTSIDYFDYLLYRSKNDESEIDLDKKLVSEFALYYVQKEHLNSDDLNPTLNELLKLQPKSADWYEMMLRILESINTTGIDQLTKENNNSFPNSKRARSSTNMGGTDKFNKGAYHTDKADDDKNEILQELTSFLMSNSIQKGIDIKPIPLDDPVKFLKNGINSILDTCVSLEKNTSSPPISPNAAAIQEEDSSKKLEELETAFSDLQLAHNFLTKQFENDRAEYVQDIEKLTRTNRELQDKLLNNHSNLSKTEKKLHELEQENKELEKANNKLNSSRHNFGMSSPASSPVTWDPSSPSSVGSPTSGSGSRSLSIMTSEFKKVLTSTQRKYEKELSDEREHRFKLERELALLKNAEANTSLALNRDDPPDML
In the case of B2, the “medrep (log2 median colony size normalized to plate background, PCA score)” value [1] is reported as 1.879 and the “Ratio (SH3-deleted/WT medrep)” value [1, 9] is reported as 0.1.

B3: YML016C (protein, UniProt P26570 2-692, looked up)
Serine/threonine-protein …: GNSSSKSSKKDSHSNSSSRNPRPQVSRTETSHSVKSAKSNKSSRSRRSLPSSSTTNTNSNVPDPSTPSKPNLEVNHQRHSSHTNRYHFPSSSHSHSNSQNELLTTPSSSSTKRPSTSRRSSYNTKAAADLPPSMIQMEPKSPILKTNNSSTHVSKHKSSYSSTYYENALTDDDNDDKDNDISHTKRFSRSSNSRPSSIRSGSVSRRKSDVTHEEPNNGSYSSNNQENYLVQALTRSNSHASSLHSRKSSFGSDGNTAYSTPLNSPGLSKLTDHSGEYFTSNSTSSLNHHSSRDIYPSKHISNDDDIENSSQLSNIHASMENVNDKNNNITDSKKDPNEEFNDIMQSSGNKNAPKKFKKPIDIDETIQKLLDAGYAAKRTKNVCLKNNEILQICIKAREIFLSQPSLLELSPPVKIVGDVHGQYGDLLRLFTKCGFPPSSNYLFLGDYVDRGKQSLETILLLFCYKIKYPENFFLLRGNHECANVTRVYGFYDECKRRCNIKIWKTFIDTFNTLPLAAIVAGKIFCVHGGLSPVLNSMDEIRHVVRPTDVPDFGLINDLLWSDPTDSPNEWEDNERGVSYCYNKVAINKFLNKFGFDLVCRAHMVVEDGYEFFNDRSLVTVFSAPNYCGEFDNWGAVMSVSEGLLCSFELLDPLDSAALKQVMKKGRQERKLANQQQQMMETSITNDNESQQ
In the case of B3, the “medrep (log2 median colony size normalized to plate background, PCA score)” value ([2]; 3-8 replicates) is reported as 1.566, the “Ratio (SH3-deleted/WT medrep)” value [2, 9] is reported as 2.5 and the “medrep (log2 median colony size normalized to plate background, PCA score)” value [3] is reported as 2.424. The “medrep (log2 median colony size normalized to plate background, PCA score)” value [4] was 2.013, the “medrep (log2 median colony size normalized to plate background, PCA score)” value ([5]; 2-4 replicates) was 1.933 and the “Ratio (SH3-deleted/WT medrep)” value [5, 9] was 0.1. For the same molecule, the “medrep (log2 median colony size normalized to plate background, PCA score)” value [6] was 2.424, the “Ratio (SH3-deleted/WT medrep)” value [6] was 0.1 and the “medrep (log2 median colony size normalized to plate background, PCA score)” value [7] was 2.329. For the same molecule, the “Ratio (SH3-deleted/WT medrep)” value [7, 9] was 1.5236.

B4: YHR158C (protein, UniProt P38853 1-1164, looked up)
Kelch repeat-containing …: MAGFSFAKKFTHKKHGKTPSDASISDQSREASLSTPPNEKFFTKQETPQKGRQFSQGYHSNVNKTSSPPMFARKQVSESRIQPSAVPPQQRNVSGPSTTLHKQLSKQREYTVWNRIKLQNSPFPRYRHVASAYVTDKNQIYVIGGLHDQSVYGDTWILTAFDNATRFSTTTIDISEATPPPRVGHAAVLCGNAFVVFGGDTHKVNKEGLMDDDIYLLNINSYKWTVPAPVGPRPLGRYGHKISIIATTQMKTKLYVFGGQFDDTYFNDLAVYDLSSFRRPDSHWEFLKPRTFTPPPITNFTMISYDSKLWVFGGDTLQGLVNDVFMYDPAINDWFIIDTTGEKPPPVQEHATVVYNDLMCVVGGKDEHDAYLNSVYFLNLKSRKWFKLPVFTAGIPQGRSGHSLTLLKNDKILIMGGDKFDYARVEEYDLHTSDIDMQRGTIVYTLDLARIKDLCPGVMDVPTDTPTPRNGNLDLATPVTPTSHQTKNMNVPISAAPLASAPSPAPKDFSDADRLNREVHNRNVSTEHQNQSHPVNSESHLIAEPNILTPYVPSESSQTPVMKITSNKPFDTPTIQKEPDLSETMDPTVGNQRIPSSIYGDNLTPANQIKNNSPILETLPSNEIKTPQNGNIEEIKHLPDADEKIDSTTTFDQEINGDKLGTSSMSKVEEDGNVADEDDEIGVAQMASSPSKDQFKIKHYNESSELSQNNTEIDKLSEPVDITIKKSDTAGHDSANHVIDASDEKNVSPMGDVPTDTKNEEASVPINRDATTEVVDRALFEKLRSELQSLKELTHEKALEAGAHIKELETELWQLKSQKNSGTTKEIDELDSVRLQSKCEILEADNHSLEDKVNELEELVNSKFLDIENLNEVIQFQNEKIKSLELEPNYKEKLEELQIEHENLSRENERLKNESKQHNEDIINNVANYSSQLGSLISHWKENRANSSFLESSSSLISVSDENGEKTVGEPYGDQSRHHRVVINKLTNRLDDLLERSQELTISKEKLSSEYHALKMEHSSLSQDVLVKENEIKKIQNDYKESISSMDSASKALMVSQRELEKYKSLNKKLIDELDELKFKNGVCSENFENGLRSTEESSNNVKNSNSIRENQFNIKINDLKAELFITNQERDDLKSEVLELKKRLLNLENNTKQVNEDADSDLL
B4 was tested, and the “medrep (log2 median colony size normalized to plate background, PCA score)” value [1] was 3.841.

B5: YCR030C (protein, UniProt P25623 1-870, looked up)
Suppressor of yeast profilin …: MTEQRTKYADSILTTKSPYEATETIRIRLSQVKLLNKDFYLLFKELANLKRNYAQQLRKIIAENEDITKILNAQMIESNVLTPQEMSAFRFNSLGELRNVWDTVIEELKSDLKSSTEYYNTLDQQVVRELKESVENNTSWRESKDLHSKLSKNAASIEHYSKNNENSSHLEEARRQWDQQSPYLFELFETIDYNRLDTLKNCMLRFQTSFSDYLLNTTKECETVMTKFLAFEPQSEIDRFAKDASQYNFQLSSSSKEVVPNNASPASATGARPVSVSNGAANTEREKKSPQKDKRKSAFGNIGHRLASASSSLTHNDLMNNEFSDSTNNSSLKSKKSSHTLRSKVGSIFGRNKTKNKRQQQSSSNSHIQASITETPNNSSTRVSSTATSSIYQKQRRPTYSSSKSNNWTPGEASDTPPLPPHATPKNVDAPVTADTPPAQTFTPSEVPPSTPQQSSPPTAKEPDSSNLPKTVPISISQPPLQPQSKTKPLPVEPASPSISLPTATVDNQPSGQVDSRPLHIRAPALPPSRKQNFIHNRDSQLYDSLPNHGSGATPTSSSLSSIPQERPVSTLSSQITGELRELNPQATGSSTSLVGQSLFQHSSLDTSQFGLNASIAEVLNASFKDGMLQNSQLIGEIALNYLPNSVMNSPLPIGINLRINNGAKFEKVILNQAFIERVAPEEFKVNPSFIDSRTLGAIKYSIKEPIAPIVIHPVWRFESHQASVVLTVKMSPSLPDEISQIVIEDLVVFVNIDGANATSALSKPQGSFSKEKKRITWRFKEPVVLTRNGEGQRLIARFITDGLAHESAKGVITKFTISETDNVALPHSGAGSGITLTCQELDENNPFGGEWLDVNTKRTLTTGNYHGLA
In the case of B5, the “medrep (log2 median colony size normalized to plate background, PCA score)” value [3] is reported as 2.035, the “Ratio (SH3-deleted/WT medrep)” value [3, 9] is reported as 0.1 and the “medrep (log2 median colony size normalized to plate background, PCA score)” value [1] is reported as 2.234. For the same molecule, the “medrep (log2 median colony size normalized to plate background, PCA score)” value [6] was 2.035, the “Ratio (SH3-deleted/WT medrep)” value [6] was 0.1 and the “medrep (log2 median colony size normalized to plate background, PCA score)” value [7] was 2.201. The “medrep (log2 median colony size normalized to plate background, PCA score)” value ([8]; bait SLA1-2, DHFR-PCA, Replicates 4 (2 for YCR009C, YDR388W)) was 3.1776, the Score ([8]; bait SLA1-2, label = prey) was 1 and the “Ratio (SH3-deleted/WT medrep)” value ([8]; bait SLA1-2, label = prey, only significant differences shown, PPIs completely lost have a ratio of 0.1, gained PPIs 2.5) was 0.1. For the same molecule, the “medrep (log2 median colony size normalized to plate background, PCA score)” value ([8]; bait SLA1-3, DHFR-PCA, Replicates 4 (2 for YCR009C, YDR388W, YIL033C)) was 3.1776 and the Score ([8]; bait SLA1-3, label = prey) was 0.
